Results taken from the supplement of paper PMC12042874.
± gives the uncertainty stated by the source.

Assay: amyloid nucleation score (Sup35N fusion, yeast selection) (log enrichment); library NNK2; higher = more nucleation; inactive = no reads after selection
Method in brief: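 The nucleation score is the log enrichment of output over input reads, calculated with DiMSum and centred on the mode score of non-aggregating sequences. Sequences with under 100 input reads were excluded. Reads came from Illumina sequencing of plasmid inserts from psi-negative yeast expressing Sup35N fused to peptides of 20 random codons, induced 24 hours with 100 μM copper sulfate and grown 7 days at 30°C without adenine and uracil.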

| Substance | amyloid nucleation score |
| --- | --- |
| YFKCGGHAFCVSNYARLNDF | -0.573 ± 0.42 |
| LRQCKGLRVLLPTGWSYKCE | 1.67 ± 0.58 |
| RMNGRYNLCTATGLVSASWW | 0.09 ± 0.4 |
| KCSSCEF | 0.768 ± 0.47 |
| VNGHLNFAS | 0.712 ± 0.56 |
| SEAYEGFSYSVLQYEP | -0.092 ± 0.36 |
| FCWNYMFVFRIGCFGFDFIG | inactive |
| TRVDDLIR | -0.191 ± 0.32 |
| NVRFLMMI | inactive |
| TVWNHVTGLDKNSRCVTQSS | 0.509 ± 0.81 |
| FLISSMHWYCHKPCWGFLGQ | -0.569 ± 0.79 |
| WCCMGDMISVKSLVWEPCVT | 3.17 ± 0.098 |
| VEGTPMFVWINWGVGKVGQS | 3.42 ± 0.051 |
| DAKRVQIYF | 1.02 ± 0.68 |
| IISYEVWSPQQGDLNSHHCL | inactive |
| SVFAKGISAVLLGACLRIAA | 1.03 ± 0.25 |
| FHTNCYKIMMSGRHFHVSFD | 8.932 ± 0.046 |
| RAPFLKMCL | -1.22 ± 0.75 |
| MRVNECCKAEGSQGRLARLV | 0.97 ± 0.55 |
| SLQRIKGNFQPMVFAINMFN | 4.6 ± 0.11 |
| LILLFLTAQRLCLVSDEESE | -0.409 ± 0.41 |
| GMLVELHYGPMY | 0.334 ± 0.56 |
| HTRLHKGIQRVEIGSMNGK | -0.637 ± 1.1 |
| NALVVLDMFLTIRSSVKGFI | inactive |
| GMGSSRGQRSTYYYGDLAYA | 0.96 ± 0.21 |

| Substance | amyloid nucleation score |
| --- | --- |
| GGDAYGRINAASYARIPRLS | 0.902 ± 0.22 |
| CLSGLLIWAHHSLKLDVLIG | 0.366 ± 0.64 |
| PARMNLYVCIYV | 7.32 ± 0.081 |
| CLYRRLYKLALNMEIIILRY | inactive |
| YFLGMVPSFSLWYETSQSQC | -0.768 ± 0.42 |
| CYGVFLVVSWDHGGDQIGVV | -0.482 ± 0.48 |
| GLPRMRSRYTYRGKYVCMCM | 1.12 ± 0.36 |
| IKDMTKVIATGFCLCITLVC | 0.592 ± 0.66 |
| SRLISFLRSRQDDSQISLGW | -0.445 ± 0.49 |
| RDTVFYILSAWNLSAGSRKA | 3.04 ± 0.089 |
| VPNVCAGYQPSETETYVLVR | 0.185 ± 0.65 |
| GAIRFK | 0.223 ± 0.54 |
| FLVLIQRKAQGITLQREGTW | 5.84 ± 0.069 |
| SSKSCVPQVLINILDDSTVN | -0.632 ± 0.79 |
| NRACFGYEDKLRAMLHLYRS | 0.201 ± 0.45 |
| SLGSSWCNSDLLAL | -0.311 ± 1.1 |
| CKVSVDN | 0.011 ± 0.36 |
| DGPWYYTVRAEIQPM | 3.78 ± 0.079 |
| MFVVKNRGCVM | -0.16 ± 0.3 |
| KSVTDSL | 0.878 ± 0.44 |
| VMCIG | -0.33 ± 0.41 |
| YLLGRMKWLNTVRWERRDEF | 3.51 ± 0.083 |
| SCSRWWFWRNATLEVLSKVR | 0.697 ± 0.81 |
| GSSGFGRVLTGIYKCYTYWE | inactive |
| QTTMKVSFSFLMRGGNPQVM | 4.56 ± 0.11 |

| Substance | amyloid nucleation score |
| --- | --- |
| YEVREFSCHGINIKMEGIYC | 1.48 ± 0.2 |
| RNVGDLMSRGSYYSIPSGNL | -1.03 ± 0.41 |
| FQCSYVWVKLWHILN | -0.887 ± 1.1 |
| NPFYYTGLTIPCFVYHRIKS | -0.508 ± 0.31 |
| LRVMSVRYSICVKYNVEFRL | 1.18 ± 0.21 |
| CALNFCAEVARFLRMLKSLL | -0.042 ± 0.79 |
| VSRSVY | 0.166 ± 0.3 |
| NSFTLKCSKGVGYKALHLGT | 2.9 ± 0.097 |
| TIKLYRNMWEQLVQTEPSRT | 0.045 ± 0.79 |
| LYQNSTILWLCCLWPVPYSG | 9.921 ± 0.076 |
| YLYSAQNIRGRWLFCSMKCD | -1.03 ± 0.62 |
| LAMLRS | 1.17 ± 0.34 |
| GLSRLTRYNNGNITTHSNWH | -0.074 ± 1.1 |
| RKCSGNAMRSLCSDPVRCVK | 0.669 ± 0.32 |
| NKRGQFMNMQLEKSLYFQGL | -1.15 ± 0.76 |
| KTIRRDVCIVVLSLQSDLNM | 5.62 ± 0.069 |
| FTCAYA | inactive |
| SLSNCSTWTSF | 0.02 ± 1 |
| LIAGYDAWWSSKMSRHKVSV | -0.232 ± 0.27 |
| YSFNLCNS | -0.013 ± 0.45 |
| VFLTGCIPR | 0.052 ± 0.37 |
| YSVSSMVKPMIICCNSVNC | 8.344 ± 0.051 |
| VDRKWRKT | -0.373 ± 1 |
| KLPIRLMTCASNFNLGNCWL | 6.003 ± 0.038 |
| ILFLVNLFSLSIANVFR | inactive |

| Substance | amyloid nucleation score |
| --- | --- |
| NLDVSYYVIYIKPGRYPV | 6.09 ± 0.078 |
| DVHTVCASSKHHLRVVKAVT | 0.494 ± 0.8 |
| KLKSVRDLSCLSYHSDIKVK | 3.58 ± 0.055 |
| TDDMCYSEMYIRCVRLFEIV | 2.34 ± 0.11 |
| YAQWYDCTSSAEKRYKKVLS | -0.473 ± 0.31 |
| QIFTKRVRTNLPFQFSNYVG | 0.479 ± 0.74 |
| SYTSAYSRYIWRHQIIMGKK | -1.11 ± 0.42 |
| VRTNDKYQEVFPSVYYNLGN | -0.944 ± 1.1 |
| FNINSPTALSYFMVLEVPLV | 2.42 ± 0.12 |
| VSACSDLNGW | -0.233 ± 0.47 |
| IVHLSHQG | -1.25 ± 0.62 |
| SGTMSLLKMLLEYKLLT | -0.678 ± 0.76 |
| SACNARRVPFG | 0.788 ± 0.51 |
| LFRLSCIALCVGIIIVSDGV | -0.33 ± 0.79 |
| FEQRGVTSRLCSPLSYEERM | -0.82 ± 0.3 |
| SLKMRNRWGIDVVE | 0.386 ± 0.23 |
| WVSSIGGDWGMIYSLLQLYW | 0.205 ± 0.46 |
| HMSTVLLAVAFIALNFPSVE | -0.373 ± 1 |
| NLISKDIVLHWSRALC | 0.339 ± 0.56 |
| FSYMYPRGLLVINMSGVQVN | 1.22 ± 0.17 |
| SKTLAGIWSDGVHAEFDIKG | -0.573 ± 0.79 |
| ASQFCNKSSSYRDSRYLYTL | -0.802 ± 0.38 |
| MLGRKHSWVA | 1.67 ± 0.33 |
| TFMTAMVVWSVSLGYPLLRR | 1.24 ± 0.23 |
| FALHGEFFYHKKRSQGFRAH | -1.36 ± 0.61 |

| Substance | amyloid nucleation score |
| --- | --- |
| VWLFNLKGPLTRNLLHNLFA | -0.678 ± 0.63 |
| NFIDRQLSILYMMFLITEC | -0.774 ± 1.1 |
| KSMFRTNLYIIILQSSTRFQ | -1.06 ± 0.76 |
| MSTIITALEFNG | 0.188 ± 0.62 |
| ISIVPYYNLGIGGRVTGSEA | 0.012 ± 0.3 |
| FNMFWVLGFTSRGTRGYSTS | 3.9 ± 0.051 |
| GHSSFDQTAFSDSAGSLRML | inactive |
| LDIYYMMYYFRFSWD | -2.64 ± 0.75 |
| VSTWTYSHRAPRG | 1.52 ± 0.26 |
| SIANLPFISLL | -1.62 ± 0.54 |
| VWRWSKRNATYIGAGIWSGR | 1.42 ± 0.21 |
| SSNLKYGKSIFGNSFLQSVF | -1.27 ± 0.62 |
| IIVFV | 0.086 ± 0.74 |
| IFVNILNWLSVVRSSGFGSV | inactive |
| KYRKSGSERTRARTGVCTVW | 0.585 ± 0.66 |
| YSSADGPDSDMCRSVLKLVI | 0.287 ± 0.25 |
| NDCRMFRELTYVPHRERC | 0.708 ± 0.49 |
| RAVHARYLL | 1.86 ± 0.15 |
| TEVGCYFYTWRICIYNDTRA | 2.28 ± 0.11 |
| IAHCCFGQF | 7.634 ± 0.074 |
| KHSIMRRKRGFPATKR | 0.722 ± 0.43 |
| MNRPVHSDYVYSFSLEFVVV | -0.089 ± 1.1 |
| KRYTHRCKPFTLHHLPVDAR | 1.25 ± 0.33 |
| LYAVRSALYFCTVYFGSSNR | 3.18 ± 0.13 |
| NWDNSNLVFLYNSGLGNYVS | -0.874 ± 0.78 |

| Substance | amyloid nucleation score |
| --- | --- |
| WESRLLEYLCTDVNTME | -0.553 ± 0.48 |
| LRVVSES | -0.599 ± 0.35 |
| VNYLPWLWSMCNRVH | -0.943 ± 0.61 |
| YWSETCLSMGENEHFNSWKI | inactive |
| HLNVKLKQVKDGQPCLMRLA | 1.67 ± 0.4 |
| PYSVMTFEIT | 0.486 ± 0.33 |
| GVRAGACLGNGSVYSSGGRF | inactive |
| RVADVCTQVMRGL | 1.9 ± 0.33 |
| IDRGTFVLGFYRYKYNYFFK | inactive |
| KYSNVTCWFSDHLGWRFHTF | inactive |
| GKCRRPMCGGKFGDQGLLRL | 3.27 ± 0.11 |
| CDLFGSCVDIWDTYINLSDR | -0.573 ± 1.1 |
| QIGNVFNRY | -0.283 ± 1 |
| MRWFNNVFFGYVVSVSRSWN | -1.01 ± 1.1 |
| VMGNFRFYRSMLAFDYDEGV | 1.14 ± 0.18 |
| CTPLGFCSKNRLGLQEDGVK | -0.788 ± 0.76 |
| SVVRTRTRTVRVMETWISVW | 0.237 ± 1 |
| LGVESTCRSWFMFLGTQRIA | -0.342 ± 1 |
| NNINLTYRLYSVLDHYKLYE | 2.66 ± 0.088 |
| TGGTVMRVR | 0.297 ± 0.29 |
| WFNCEWEDEFIEGQRVVMTV | 1.44 ± 0.47 |
| FMVQSVFTKLGPSQAFRVHP | -0.14 ± 1 |
| TVVKDHEYKEWSDWSF | inactive |
| WDSQESITKS | -0.172 ± 0.54 |
| LSINLSDMNFVVHSCLGSLG | 5.45 ± 0.077 |

| Substance | amyloid nucleation score |
| --- | --- |
| NSREALVKVGNECP | inactive |
| FWALCVASVICYFVRMLSLA | 0.169 ± 0.3 |
| CALGDATFNVWYMLS | 4.14 ± 0.05 |
| LSRAN | inactive |
| EELSIQRALLVCPKKEGFLE | 3.69 ± 0.082 |
| NCSCIFKNCGFNWVFLGRIL | 2.29 ± 0.17 |
| SLKANYGWLISNAWDMFHLG | -0.467 ± 0.74 |
| WGSEAHTDRVVQYWILALQR | 1.19 ± 0.12 |
| SLGPRRSCCTIWKVWAYAGS | 0.241 ± 0.42 |
| KVSVTMHLAKMDFCRLWG | 7.11 ± 0.046 |
| GAWFQTYWLWCEYMAFIQKL | 1.86 ± 0.17 |
| VFIVMYSKFLKHVYGTTLTN | inactive |
| SCALF | -0.679 ± 1.1 |
| SGSRYAIVSYG | -0.139 ± 0.53 |
| SYCSL | 0.548 ± 0.38 |
| CSLQYYSLRNDRDRVTELRR | 0.475 ± 0.51 |
| SPGRLFATEFVVVYVKYHSP | -0.121 ± 0.37 |
| EFNYHVQRSLFSR | 0.285 ± 0.65 |
| TYDSYRVIYISY | -0.372 ± 0.61 |
| NGLLSRNCIWSFGFESEVEG | inactive |
